T1: Rrp41/Rrp45 heterodimer (S. cerevisiae, UniProt P46948 1-246; Q05636 1-305)
T1 sequence (looked up) 1: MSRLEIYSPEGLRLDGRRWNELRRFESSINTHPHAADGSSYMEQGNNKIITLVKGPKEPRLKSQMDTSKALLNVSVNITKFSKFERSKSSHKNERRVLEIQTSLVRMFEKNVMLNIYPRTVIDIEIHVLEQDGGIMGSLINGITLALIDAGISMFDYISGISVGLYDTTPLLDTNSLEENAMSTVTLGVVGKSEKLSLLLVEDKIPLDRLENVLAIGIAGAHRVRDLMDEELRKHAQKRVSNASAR
T1 sequence (looked up) 2: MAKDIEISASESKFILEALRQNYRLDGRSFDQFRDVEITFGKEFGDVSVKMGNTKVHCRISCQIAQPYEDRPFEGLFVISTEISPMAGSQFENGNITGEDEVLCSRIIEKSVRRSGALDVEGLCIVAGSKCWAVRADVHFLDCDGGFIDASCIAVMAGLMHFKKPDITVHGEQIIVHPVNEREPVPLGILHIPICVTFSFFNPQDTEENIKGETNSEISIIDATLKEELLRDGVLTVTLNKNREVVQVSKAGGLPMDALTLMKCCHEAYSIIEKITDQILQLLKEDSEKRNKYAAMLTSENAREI

B1: Rrp40 (natural protein, S. cerevisiae, UniProt Q08285 1-240, looked up)
chain: MSTFIFPGDSFPVDPTTPVKLGPGIYCDPNTQEIRPVNTGVLHVSAKGKSGVQTAYIDYSSKRYIPSVNDFVIGVIIGTFSDSYKVSLQNFSSSVSLSYMAFPNASKKNRPTLQVGDLVYARVCTAEKELEAEIECFDSTTGRDAGFGILEDGMIIDVNLNFARQLLFNNDFPLLKVLAAHTKFEVAIGLNGKIWVKCEELSNTLACYRTIMECCQKNDTAAFKDIAKRQFKEILTVKEE
B2: Csl4 (natural protein, S. cerevisiae, UniProt P53859 1-292, looked up)
chain: MACNFQFPEIAYPGKLICPQYGTENKDGEDIIFNYVPGPGTKLIQYEHNGRTLEAITATLVGTVRCEEEKKTDQEEEREGTDQSTEEEKSVDASPNDVTRRTVKNILVSVLPGTEKGRKTNKYANNDFANNLPKEGDIVLTRVTRLSLQRANVEILAVEDKPSPIDSGIGSNGSGIVAAGGGSGAATFSVSQASSDLGETFRGIIRSQDVRSTDRDRVKVIECFKPGDIVRAQVLSLGDGTNYYLTTARNDLGVVFARAANGAGGLMYATDWQMMTSPVTGATEKRKCAKPF
B3: Rrp4 (natural protein, S. cerevisiae, UniProt P38792 1-359, looked up)
chain: MSEVITITKRNGAFQNSSNLSYNNTGISDDENDEEDIYMHDVNSASKSESDSQIVTPGELVTDDPIWMRGHGTYFLDNMTYSSVAGTVSRVNRLLSVIPLKGRYAPETGDHVVGRIAEVGNKRWKVDIGGKQHAVLMLGSVNLPGGILRRKSESDELQMRSFLKEGDLLNAEVQSLFQDGSASLHTRSLKYGKLRNGMFCQVPSSLIVRAKNHTHNLPGNITVVLGVNGYIWLRKTSQMDLARDTPSANNSSSIKSTGPTGAVSLNPSITRLEEESSWQIYSDENDPSISNNIRQAICRYANVIKALAFCEIGITQQRIVSAYEASMVYSNVGELIEKNVMESIGSDILTAEKMRGNGN

Target: T1, Rrp41/Rrp45 heterodimer
Assay: SEC

Row | Binder | binding result
1 | B1 | binds
2 | B2 | binds
3 | B3 | binds

Source: paper PMC8596991 (Methods in molecular biology (Clifton, N.J.), 2020)
